The values below come from publication PMC11770808, “Interplay between conformational dynamics and substrate binding regulates enzymatic activity: a single-molecule FRET study” (Chemical Science, 2025).

The test system of the data set is T1, Nc1ncnc2c1ncn2[C@@H]1O[C@H](COP(=O)(O)OP(=O)(O)O)[C@@H](O)[C@H]1O.
T1 construct: purified recombinant, details only in ESI
The data set is described as follows: coupled assay (hexokinase / glucose-6-phosphate dehydrogenase), initial velocities fitted to Michaelis-Menten. Format: biochemical, Escherichia coli. Conditions: backward reaction, 0 M urea, dye-labelled enzyme (A73C/V142C background inferred), 50 mM Tris-HCl pH 8.0, 100 mM KCl, 10 mM MgCl2.

For “adenylate kinase (AK), wild-type (WT) (Escherichia coli K-12; A73C/V142C)”, the Km is 1340(±98) µM.
